Source: US5534410, “TATA-binding protein associated factors drug screens” (The Regents of the University of California, dated 1996)

Tests used:
[1] = target: T1, GST-NTF-1 fusion protein containing the N-terminal 284 amino acids of NTF-1 (Drosophila, UniProt P13002); assay: GST-NTF-1 fusion binding assay
T1 sequence: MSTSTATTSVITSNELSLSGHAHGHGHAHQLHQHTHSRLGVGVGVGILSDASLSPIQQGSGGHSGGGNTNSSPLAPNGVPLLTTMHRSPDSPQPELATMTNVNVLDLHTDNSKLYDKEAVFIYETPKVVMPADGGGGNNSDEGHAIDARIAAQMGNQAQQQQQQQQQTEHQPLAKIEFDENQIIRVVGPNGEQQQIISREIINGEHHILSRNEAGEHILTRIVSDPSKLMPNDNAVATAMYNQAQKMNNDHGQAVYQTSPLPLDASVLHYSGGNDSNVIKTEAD

radiolabeled nTBP = radiolabeled nTBP (Homo sapiens (Human), UniProt P20226); assay: Far Western with radiolabeled probe
[2] = target: human TATA-binding protein (hTBP) (human, UniProt P20226); assay: Far Western of immunoprecipitated hTFIID complex with 35S-labeled hTBP
[3] = target: Sp1, over-expressed and purified from HeLa cells infected with a vaccinia virus expression vector (Homo sapiens (Human), UniProt P08047); assay: in vitro binding to DNA-bound Sp1 resin
[4] = target: acidic activation domain of GAL4 (residues 768-881) (Saccharomyces cerevisiae (strain ATCC …, UniProt P04386)); assay: yeast two-hybrid
[5] = target: control resin that lacked Sp1 (streptavidin-agarose with biotinylated oligonucleotides) (Streptomyces avidinii, UniProt P22629); assay: 35S-TAF110 on control DNA affinity resin, SDS-PAGE, autoradiography
[6] = target: T2, Drosophila TATA-binding protein (dTBP) (Drosophila, UniProt P20227); assay: coimmunoprecipitation of in vitro expressed proteins
T2 sequence: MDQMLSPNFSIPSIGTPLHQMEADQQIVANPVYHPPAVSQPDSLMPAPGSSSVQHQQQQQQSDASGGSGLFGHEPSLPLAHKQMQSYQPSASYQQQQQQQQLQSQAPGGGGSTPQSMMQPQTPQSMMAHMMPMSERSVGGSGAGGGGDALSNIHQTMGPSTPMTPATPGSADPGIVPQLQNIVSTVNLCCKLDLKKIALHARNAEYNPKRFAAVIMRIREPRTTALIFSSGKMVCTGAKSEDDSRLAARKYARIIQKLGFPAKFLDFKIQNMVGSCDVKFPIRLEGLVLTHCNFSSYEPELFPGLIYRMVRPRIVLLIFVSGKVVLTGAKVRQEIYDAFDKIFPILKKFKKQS

B1: dTAFII80 (other)
chain: MSLEVSNINGGNGTQLSHDKRELLCLLKLIKKYQLKSTEELLCQEANVSSVELSEISESDVQQVLGAVLGAGDANRERKHVQSPAQGHKQSAVTEANAAEELAKFIDDDSFDAQHYEQAYKELRTFVEDSLDIYKHELSMVLYPILVQIYFKILASGLREKAKEFIEKYKCDLDGYYIEGLFNLLLLSKPEELLENDLVVAMEQDKFVIRMSRDSHSLFKRHIQDRRQEVVADIVSKYLHFDTYEGMARNKLQCVATAGSHLGEAKRQDNKMRVYYGLLKEVDFQTLTTPAPAPEEEDDDPDAPDRPKKKKPKKDPLLSKKSKSDPNAPSIDRIPLPELKDSDKLLKLKALREASKRLALSKDQLPSAVFYTVLNSHQGVTCAEISDDSTMLACGFGDSSVRIWSLTPAKLRTLKDADSLRELDKESADINVRMLDDRSGEVTRSLMGHTGPVYRCAFAPEMNLLLSCSEDSTIRLWSLLTWSCVVTYRGHVYPVWDVRFAPHGYYFVSCSYDKTARLWATDSNQALRVFVGHLSDVDCVQFHPNSNYVATGSSDRTVRLWDNMTGQSVRLMTGHKGSVSSLAFSACGRYLASGSVDHNIIIWDLSNGSLVTTLLRHTSTVTTITFSRDGTVLAAAGLDNNLTLWDFHKVTEDYISNHITVSHHQDENDEDVYLMRTFPSKNSPFVSLHFTRRNLLMCVGLFKS
binding result [1]: no binding

B2: hTAFII250 (other)
chain: MGPGCDLLLRTAATITAAAIMSDTDSDEDSAGGGPFSLAGFLFGNINGAGQLEGESVLDDECKKHLAGLGALGLGSLITELTANEELTGTDGALVNDEGWVRSTEDAVDYSDINEVAEDESRRYQQTMGSLQPLCHSDYDEDDYDADCEDIDCKLMPPPPPPPGPMKKDKDQDSITGVSENGEGIILPSIIAPSSLASEKVDFSSSSDSESEMGPQEATQAESEDGKLTLPLAGIMQHDATKLLPSVTELFPEFRPGKVLRFLRLFGPGKNVPSVWRSARRKRKKKHRELIQEEQIQEVECSVESEVSQKSLWNYDYAPPPPPEQCLSDDEITMMAPVESKFSQSTGDIDKVTDTKPRVAEWRYGPARLWYDMLGVPEDGSGFDYGFKLRKTEHEPVIKSRMIEEFRKLEENNGTDLLADENFLMVTQLHWEDDIIWDGEDVKHKGTKPQRASLAGWLPSSMTRNAMAYNVQQGFAATLDDDKPWYSIFPIDNEDLVYGRWEDNIIWDAQAMPRLLEPPVLTLDPNDENLILEIPDEKEEATSNSPSKESKKESSLKKSRILLGKTGVIKEEPQQNMSQPEVKDPWNLSNDEYYYPKQQGLRGTFGGNIIQHSIPAVELRQPFFPTHMGPIKLRQFHRPPLKKYSFGALSQPGPHSVQPLLKHIKKKAKMREQERQASGGGEMFFMRTPQDLTGKDGDLILAEYSEENGPLMMQVGMATKIKNYYKRKPGKDPGAPDCKYGETVYCHTSPFLGSLHPGQLLQAFENNLFRAPIYLHKMPETDFLIIRTRQGYYIRELVDIFVVGQQCPLFEVPGPNSKRANTHIRDFLQVFIYRLFWKSKDRPRRIRMEDIKKAFPSHSESSIRKRLKLCADFKRTGMDSNWWVLKSDFRLPTEEEIRAMVSPEQCCAYYSMIAAEQRLKDAGYGEKSFFAPEEENEEDFQMKIDDEVRTAPWNTTRAFIAAMKGKCLLEVTGVADPTGCGEGFSYVKIPNKPTQQKDDKEPQPVKKTVTGTDADLRRLSLKNAKQLLRKFGVPEEEIKKLSRWEVIDVVRTMSTEQARSGEGPMSKFARGSRFSVAEHQERYKEECQRIFDLQNKVLSSTEVLSTDTDSSSAEDSDFEEMGKNIENMLQNKKTSSQLSREREEQERKELQRMLLAAGSAASGNNHRDDDTASVTSLNSSATGRCLKIYRTFRDEEGKEYVRCETVRKPAVIDAYVRIRTTKDEEFIRKFALFDEQHREEMRKERRRIQEQLRRLKRNQEKEKLKGPPEKKPKKMKERPDLKLKCGACGAIGHMRTNKFCPLYYQTNAPPSNPVAMTEEQEEELEKTVIHNDNEELIKVEGTKIVLGKQLIESADEVRRKSLVLKFPKQQLPPKKKRRVGTTVHCDYLNRPHKSIHRRRTDPMVTLSSILESIINDMRDLPNTYPFHTPVNAKVVKDYYKIITRPMDLQTLRENVRKRLYPSREEFREHLELIVKNSATYNGPKHSLTQISQSMLDLCDEKLKEKEDKLARLEKAINPLLDDDDQVAFSFILDNIVTQKMMAVPDSWPFHHPVNKKFVPDYYKVIVNPMDLETIRKNISKHKYQSRESFLDDVNLILANSVKYNGPESQYTKTAQEIVNVCYQTLTEYDEHLTQLEKDICTAKEAALEEAELESLDPMTPGPYTPQPPDLYDTNTSLSMSRDASVFQDESNMSVLDIPSATPEKQVTQEGEDGDGDLADEEEGTVQQPQASVLYEDLLMSEGEDDEEDAGSDEEGDNPFSAIQLSESGSDSDVGSGGIRPKQPRMLQENTRMDMENEESMMSYEGDGGEASHGLEDSNISYGSYEEPDPKSNTQDTSFSSIGGYEVSEEEEDEEEEEQRSGPSVLSQVHLSEDEEDSEDFHSIAGDSDLDSDE
binding result (radiolabeled nTBP): no binding | binding result [2]: binds

B3: TAF110 deletion mutant 1-137 (other)
chain: MNTSQTAAGNRITFTSQPLPNGTISIAGNPGAVISTAQLPNTTTIKTIQAGIGGQHQGLQQVHHVQQQQQSQQQQQQQQQTQSAGQPLLNSMLPAGVVVGMRQQAPSQQQQKNVPTNPLSRVVINSHMAGVRPQSPS
binding result [3]: no binding

B4: G4-110 (fl): full-length TAF110 fused to the DNA binding domain of GAL4, G4(1-147) (other)
chain: MNTSQTAAGNRITFTSQPLPNGTISIAGNPGAVISTAQLPNTTTIKTIQAGIGGQHQGLQQVHHVQQQQQSQQQQQQQQQTQSAGQPLLNSMLPAGVVVGMRQQAPSQQQQKNVPTNPLSRVVINSHMAGVRPQSPSITLSTLNTGQTPALLVKTDNGFQLLRVGTTTGPPTVTQTITNTSNNSNTTSTTNHPTTTQIRLQTVPAAASMTNTTATSNIIVNSVASSGYANSSQPPHLTQLNAQAPQLPQITQIQTIPAQQSQQQQVNNVSSAGGTATAVSSTTAATTTQQGNTKEKCRKFLANLIELSTREPKPVEKNVRTLIQELVNANVEPEEFCDRLERLLNASPQPCLIGFLKKSLPLLRQALYTKELVIEGIKPPPQHVLGLAGLSQQLPKIQAQIRPIGPSQTTTIGQTQVRMITPNALGTPRPTIGHTTISKQPPNIRLPTAPRLVNTGGIRTQIPSLQVPGQANIVQIRGPQHAQLQRTGSVQIRATTRPPNSVPTANKLTAVKVGQTQIKAITPSLHPPSLAAISGGPPPTPTLSVLSTLNSASTTTLPIPSLPTVHLPPEALRAREQMQNSLNHNSNHFDAKLVEIKAPSLHPPHMERINASLTPIGAKTMARPPPAINKAIGKKKRDAMEMDAKLNTSSGGAASAANSFFQQSSMSSMYGDDDINDVAAMGGVNLAEESQRILGCTENIGTQIRSCKDEVFLNLPSLQARIRAITSEAGLDEPSQDVAVLISHACQERLKNIVEKLAVIAEHRIDVIKLDPRYEPAKDVRGQIKFLEELDKAEQKRHEELEREMLLRAAKSRSRVEDPEQAKMKARAKEMQRAEMEELRQRDANLTALQAIGPRKKLKLDGETVSSGAGSSGGGVLSSSGSAPTTLRPRIKRVNLRDMLFYMEQEREFCRSSMLFKTYLK
binding result [4]: no binding

B5: Drosophila TAF110 (dTAFII110), full-length (other)
chain: MNTSQTAAGNRITFTSQPLPNGTISIAGNPGAVISTAQLPNTTTIKTIQAGIGGQHQGLQQVHHVQQQQQSQQQQQQQQQTQSAGQPLLNSMLPAGVVVGMRQQAPSQQQQKNVPTNPLSRVVINSHMAGVRPQSPSITLSTLNTGQTPALLVKTDNGFQLLRVGTTTGPPTVTQTITNTSNNSNTTSTTNHPTTTQIRLQTVPAAASMTNTTATSNIIVNSVASSGYANSSQPPHLTQLNAQAPQLPQITQIQTIPAQQSQQQQVNNVSSAGGTATAVSSTTAATTTQQGNTKEKCRKFLANLIELSTREPKPVEKNVRTLIQELVNANVEPEEFCDRLERLLNASPQPCLIGFLKKSLPLLRQALYTKELVIEGIKPPPQHVLGLAGLSQQLPKIQAQIRPIGPSQTTTIGQTQVRMITPNALGTPRPTIGHTTISKQPPNIRLPTAPRLVNTGGIRTQIPSLQVPGQANIVQIRGPQHAQLQRTGSVQIRATTRPPNSVPTANKLTAVKVGQTQIKAITPSLHPPSLAAISGGPPPTPTLSVLSTLNSASTTTLPIPSLPTVHLPPEALRAREQMQNSLNHNSNHFDAKLVEIKAPSLHPPHMERINASLTPIGAKTMARPPPAINKAIGKKKRDAMEMDAKLNTSSGGAASAANSFFQQSSMSSMYGDDDINDVAAMGGVNLAEESQRILGCTENIGTQIRSCKDEVFLNLPSLQARIRAITSEAGLDEPSQDVAVLISHACQERLKNIVEKLAVIAEHRIDVIKLDPRYEPAKDVRGQIKFLEELDKAEQKRHEELEREMLLRAAKSRSRVEDPEQAKMKARAKEMQRAEMEELRQRDANLTALQAIGPRKKLKLDGETVSSGAGSSGGGVLSSSGSAPTTLRPRIKRVNLRDMLFYMEQEREFCRSSMLFKTYLK
binding result [5]: no binding | binding result [6]: no binding

B6: dTAFII40 (other)
chain: MSAEKSDKAKISAQIKHVPKDAQVIMSILKELNVQEYEPRVVNQLLEFTFRYVTCILDDAKVYANHARKKTIDLDDVRLATEVTLDKSFTGPLERHVLAKVADVRNSMPLPPIKPHCGLRLPPDRYCLTGVNYKLRATNQPKKMTKSAVEGRPLKTVVKPVSSANGPKRPHSVVAKQQVVTIPKPVIKFTTTTTTKTVGSSGGSGGGGGQEVKSESTGAGGDLKMEVDSDAAAVGSIAGASGSGAGSASGGGGGGGSSGVGVAVKREREEEEFEFVTN
binding result [1]: no binding
